US20080274100A1 (published 2008)
Substitutions are numbered along the chain they refer to.

Columns and labels:
glycocalicin = molecular target: T1, glycocalicin (UniProt P07359 17-506); experiment: SPR (BIAcore 3000), glycocalicin immobilized on CM5 chip
T1 construct: domain: glycocalicin (the outer membrane portion derived from GPIb); also called purified glycocalicin; purified GPIbα

GPIb on human platelets [1] = molecular target: T2, GPIb on human platelets (human, UniProt P07359 17-652); experiment: cell-based or functional assay
T2 sequence (P07359 17-652): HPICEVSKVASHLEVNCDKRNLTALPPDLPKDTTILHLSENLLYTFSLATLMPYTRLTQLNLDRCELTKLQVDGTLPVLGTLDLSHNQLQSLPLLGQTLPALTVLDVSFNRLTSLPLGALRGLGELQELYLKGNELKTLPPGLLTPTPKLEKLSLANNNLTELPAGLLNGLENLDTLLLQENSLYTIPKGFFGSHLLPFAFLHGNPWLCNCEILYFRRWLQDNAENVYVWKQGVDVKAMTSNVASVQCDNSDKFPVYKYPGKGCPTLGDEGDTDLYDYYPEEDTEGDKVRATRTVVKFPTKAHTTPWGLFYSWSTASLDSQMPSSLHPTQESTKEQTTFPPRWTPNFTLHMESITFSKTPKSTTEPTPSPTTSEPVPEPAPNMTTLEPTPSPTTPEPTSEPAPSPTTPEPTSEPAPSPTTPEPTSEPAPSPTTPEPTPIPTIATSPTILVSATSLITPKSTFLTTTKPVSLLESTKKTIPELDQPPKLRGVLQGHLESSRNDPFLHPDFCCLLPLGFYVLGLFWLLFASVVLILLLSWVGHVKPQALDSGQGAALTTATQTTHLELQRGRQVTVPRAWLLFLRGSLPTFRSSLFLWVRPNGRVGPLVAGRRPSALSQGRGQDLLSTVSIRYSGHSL

GPIb on human platelets [2] = molecular target: T2, GPIb on human platelets; experiment: FACS on human platelets
[3] = molecular target: T3, platelet GPIb, guinea pig (guinea pig platelets) (guinea pig); experiment: FACS on guinea pig platelets
T3 construct: whole, on cells; also called guinea pig derived platelets

[4] = molecular target: T4, human CCR5 on transfected L1.2 cells (human, UniProt P51681 1-352); experiment: flow cytometry, L1.2 cells transfected with human CCR5
T4 construct: whole, on cells
T4 sequence (P51681 whole entry): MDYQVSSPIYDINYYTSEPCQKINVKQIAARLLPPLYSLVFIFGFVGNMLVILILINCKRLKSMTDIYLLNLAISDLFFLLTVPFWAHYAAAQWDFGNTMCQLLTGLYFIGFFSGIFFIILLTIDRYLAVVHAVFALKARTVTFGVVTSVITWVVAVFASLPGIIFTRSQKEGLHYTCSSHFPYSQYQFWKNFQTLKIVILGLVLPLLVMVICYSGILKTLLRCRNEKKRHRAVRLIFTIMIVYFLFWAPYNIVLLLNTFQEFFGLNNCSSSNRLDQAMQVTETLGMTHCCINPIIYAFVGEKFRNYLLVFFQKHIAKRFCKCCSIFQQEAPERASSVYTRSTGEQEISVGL

[5] = molecular target: T5, CXCR4 point mutant Tyr-21 to alanine (UniProt P61073 1-352); experiment: epitope mapping with tyrosine-to-alanine point mutants of CXCR4
T5 construct: also called CXCR4 Y21A
T5 sequence (P61073 other isoform, or with tags, fused parts or gaps mutant limits assumed): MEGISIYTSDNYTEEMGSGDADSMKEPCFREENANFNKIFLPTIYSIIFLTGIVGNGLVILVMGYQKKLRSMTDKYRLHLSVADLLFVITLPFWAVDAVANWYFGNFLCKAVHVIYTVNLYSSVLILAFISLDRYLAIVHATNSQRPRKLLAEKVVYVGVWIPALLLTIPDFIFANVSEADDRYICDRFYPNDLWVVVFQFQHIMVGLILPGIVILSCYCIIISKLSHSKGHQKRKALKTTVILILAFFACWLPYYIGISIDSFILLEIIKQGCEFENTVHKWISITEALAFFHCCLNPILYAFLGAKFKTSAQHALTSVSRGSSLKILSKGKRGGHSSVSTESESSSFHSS

T1 sequence (P07359 17-506 limits assumed): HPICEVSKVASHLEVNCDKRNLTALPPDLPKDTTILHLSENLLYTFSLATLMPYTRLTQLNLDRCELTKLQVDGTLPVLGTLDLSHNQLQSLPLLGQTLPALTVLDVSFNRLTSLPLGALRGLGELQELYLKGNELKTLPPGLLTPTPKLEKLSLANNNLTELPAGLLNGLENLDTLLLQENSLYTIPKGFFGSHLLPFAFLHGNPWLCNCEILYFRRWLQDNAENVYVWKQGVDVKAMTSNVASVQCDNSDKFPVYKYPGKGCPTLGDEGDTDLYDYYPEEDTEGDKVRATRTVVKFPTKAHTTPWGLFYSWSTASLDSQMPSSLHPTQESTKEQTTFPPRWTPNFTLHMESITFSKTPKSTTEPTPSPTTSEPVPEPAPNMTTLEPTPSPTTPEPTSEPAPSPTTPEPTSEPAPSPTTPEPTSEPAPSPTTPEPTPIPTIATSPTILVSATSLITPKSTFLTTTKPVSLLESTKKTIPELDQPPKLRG

B1: Y1 scFv (scFv)
chain: EVQLVESGGGVVRPGGSLRLSCAASGFTFDDYGMSWVRQAPGKGLEWVSGINWNGGSTGYADSVKGRFTISRDNAKNSLYLQMNSLRAEDTAVYYCARMRAPVIWGQGTLVTVSRGGGGSGGGGSGGGGSSELTQDPAVSVALGQTVRITCQGDSLRSYYASWYQQKPGQAPVLVIYGKNNRPSGIPDRFSGSSSGNTASLTITGAQAEDEADYYCNSRDSSGNHVVFGGGTKLTVLGAAAEQKLISEEDLNGAA
In the case of B1, the Kd (glycocalicin) is reported as 450 nM, the koff (glycocalicin) is reported as 0.12 s⁻¹ and the “inhibition of ristocetin-induced, vWF-dependent platelet aggregation in washed platelets (IC50)” value (GPIb on human platelets [1]) is reported as 800 nM.

B2: D1 scFv (scFv)
scFv: EVQLVESGGGVVRPGGSLRLSCAASGFTFDLNPKVKHMWVRQAPGKGLEWVSGINWNGGSTGYADSVKGRFTISRDNAKNSLYLQMNSLRAEDTAVYYCARLRSPFGWGQGTLVTVSRGGGGSGGGGSGGGGSSELTQDPAVSVALGQTVRITCQGDSLRSYYASWYQQKPGQAPVLVIYGKNNRPSGIPDRFSGSSSGNTASLTITGAQAEDEADYYCNSRDSSGNHVVFGGGTKLTVLGAAAEQKLISEEDLNGAA
In the case of B2, the “fold binding capacity relative to Y1” value (GPIb on human platelets [2]) is reported as roughly 25 fold and the “fold binding capacity relative to Y1” value [3] is reported as roughly 25 fold.

B3: S11 scFv (scFv)
scFv: B2 scFv with S104Y, G107F
notes: also called scFv S11
For B3, the binding result [4] was “binds”, the “fold binding capacity relative to Y1” value (GPIb on human platelets [2]) was roughly 25 fold and the binding result [5] was “no binding”. The “fold binding capacity relative to Y1” value [3] was roughly 25 fold.

B4: S1 scFv (scFv)
scFv: B2 scFv with S104P, G107L
B4 was tested, and the “fold binding capacity relative to Y1” value [3] was roughly 25 fold.
